{
  "source": "paper PMC10904395",
  "about": "“The Deinococcus protease PprI senses DNA damage by directly interacting with single-stranded DNA”",
  "binders": {"B1": {"name": "35nt ssDNA (ssDNA)", "DNA": "CGCTCTTCGCCATTCTCTTGAAGTTTCAAACTTGG"}, "B2": {"name": "35 bp dsDNA (dsDNA)", "DNA 1": "B1 DNA", "DNA 2": "CCAAGTTTGAAACTTCAAGAGAATGGCGAAGAGCG"}, "B3": {"name": "35nt RNA (ssRNA)", "RNA": "CGCUCUUCGCCAUUCUCUUGAAGUUUCAAACUUGG"}, "B4": {"name": "29nt ssDNA (co-crystal) (ssDNA)", "DNA": "TCATGAGCAGTTTTTTTTTTTTTTTTTTT"}},
  "key": {"[1]": {"biological_target": "T1, DG-PprI (IrrE) (Deinococcus geothermalis, UniProt Q1J1D6 1-289)", "T1 sequence": "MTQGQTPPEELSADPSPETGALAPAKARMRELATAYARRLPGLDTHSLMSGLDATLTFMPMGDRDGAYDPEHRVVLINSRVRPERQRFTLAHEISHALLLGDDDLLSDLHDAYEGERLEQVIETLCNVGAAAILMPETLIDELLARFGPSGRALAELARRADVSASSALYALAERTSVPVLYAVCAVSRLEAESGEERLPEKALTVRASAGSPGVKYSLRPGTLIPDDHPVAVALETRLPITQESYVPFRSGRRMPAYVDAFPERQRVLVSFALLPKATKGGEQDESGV", "test": "EMSA; 1 or 2 uM protein, 0.1 uM DNA; EMSA: 150 mM NaCl, 20 mM Tris-HCl pH 8.0, 0.1 mg/ml BSA, 0.1 uM FAM-labeled nucleic acid, 0/1/2 uM protein, room temperature 30 min, 10% native PAGE in 1x TB", "conditions": "protein: recombinant, tags: tag removed"}, "[2]": {"biological_target": "T1, DG-PprI (IrrE)", "test": "EMSA; 1 or 2 uM protein, 0.1 uM RNA; EMSA: 150 mM NaCl, 20 mM Tris-HCl pH 8.0, 0.1 mg/ml BSA, 0.1 uM FAM-labeled nucleic acid, 0/1/2 uM protein, room temperature 30 min, 10% native PAGE in 1x TB", "conditions": "protein: recombinant; tags: tag removed; label: 5' FAM"}, "[3]": {"biological_target": "T1, DG-PprI (IrrE)", "test": "X-ray crystallography; Mn2+; 2.2 A; PprI dimer in asymmetric unit; EMSA: 150 mM NaCl, 20 mM Tris-HCl pH 8.0, 0.1 mg/ml BSA, 0.1 uM FAM-labeled nucleic acid, 0/1/2 uM protein, room temperature 30 min, 10% native PAGE in 1x TB", "conditions": "protein: recombinant; tags: tag removed"}},
  "data": [
    {"binder": "B1", "values": [
      {"measurement": "binding result", "setting": "[1]; label: 5' FAM", "result": "binds"}
    ]},
    {"binder": "B2", "values": [
      {"measurement": "binding result", "setting": "[1]; label: 5' FAM on F strand, blunt", "result": "no binding"}
    ]},
    {"binder": "B3", "values": [
      {"measurement": "binding result", "setting": "[2]", "result": "no binding"}
    ]},
    {"binder": "B4", "values": [
      {"measurement": "binding result", "setting": "[3]", "result": "binds"}
    ]}
  ]
}
